According to patent US20190309092A1:

Molecular target: TNFα (UniProt P01375)
Assay: SPR, Biacore T100, single-cycle kinetics, 1:1 Langmuir fit; Target 1 column

Sequence of UniProt P01375 (P01375 77-233 limits assumed): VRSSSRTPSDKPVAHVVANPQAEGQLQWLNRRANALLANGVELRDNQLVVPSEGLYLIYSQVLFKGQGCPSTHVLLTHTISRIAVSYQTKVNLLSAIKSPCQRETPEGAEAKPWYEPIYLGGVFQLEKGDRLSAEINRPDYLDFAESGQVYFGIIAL

Kd: 0.0643 nM
Substance: Humira IgG(Full) (antibody)
